Experiment [1] deals with HLA-C*03:04 on single-antigen beads. Nature of the experiment: Luminex single-antigen HLA bead binding assay.
In experiment [2] the target is HLA-C*06:02 on single-antigen beads. Put plainly: Luminex single-antigen HLA bead binding assay.

Broadly, the Kd is the equilibrium constant for the complex coming apart.

As to “soluble KIR2DL2*001 Fc fusion protein (sKIR2DL2*001) (from UniProt P43627 22-245)”, the Kd in experiment [1] turned out to be 200 nM. Besides, in experiment [2], the MFI at 20 μg/ml was < 500 MFI.

As to “soluble KIR2DL2*003 Fc fusion protein (sKIR2DL2*003) (from UniProt P43627 22-245)”, the Kd in experiment [1] came to 700 nM; in experiment [2], 24000 nM. In addition, the MFI at 20 μg/ml in experiment [2] is < 500 MFI.

As to “soluble KIR2DL2*006 Fc fusion protein (sKIR2DL2*006) (from UniProt P43627 22-245)”, in experiment [2], the Kd was 4300 nM and the MFI at 20 μg/ml was < 500 MFI.

As for “soluble KIR2DL3*001 Fc fusion protein (sKIR2DL3*001) (from UniProt P43628 22-245)”, the equilibrium dissociation constant (Kd) in experiment [1] was determined as 1000 nM.

Take “soluble KIR2DL3*002 Fc fusion protein (sKIR2DL3*002) (from UniProt P43628 22-245)”: in experiment [1], the dissociation constant Kd amounted to 1200 nM.

As for “soluble KIR2DL3*005 Fc fusion protein (sKIR2DL3*005) (from UniProt P43628 22-245)”, the Kd is 100 nM in experiment [1] and 7000 nM in experiment [2]. Besides, in experiment [2], the MFI at 20 μg/ml is < 500 MFI.

Source of the values: PMC3679298.
